The experiment concerns the target T1, BMP10 (UniProt O95393 317-424).
T1 sequence (looked up): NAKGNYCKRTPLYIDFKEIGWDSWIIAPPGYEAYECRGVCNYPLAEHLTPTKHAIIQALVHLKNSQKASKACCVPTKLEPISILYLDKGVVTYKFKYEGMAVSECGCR
The experiment can be described thus: Biacore (SPR); Fc fusion captured with anti-Fc antibody, ligand injected (FIG. 3B). How it is done:
A Biacore™-based binding assay was used to compare ligand binding selectivity of the ALK6 variant-Fc dimeric complex (e.g., SEQ ID NO: 46) described above with that of ALK6 wt-Fc complexes (SEQ ID NO: 49). The Fc dimeric complexes were independently captured onto the system using an anti-Fe antibody. Ligands were injected and allowed to flow over the captured receptor protein.
In general terms: Surface plasmon resonance follows binding to a sensor surface in real time, without labels.

B1: ALK6-Fc fusion polypeptide (SEQ ID NO: 89) (Fc fusion)
chain: KKEDGESTAPTPRPKVLRCYCSGHCPEDSVNNICSTDGYCFTMIEEDDSGLPVVTSGCLKLEGSDFQCRDTPIPHQRRSIECCTERNECNKDLHPTLPPVVIGPFFDGSIRTGGGGSGGGGSGGGGSGGGGSTHTCPPCPAPEAAGGPSVFLFPPKPKDTLMISRTPEVTCVVVDVSHEDPEVKFNWYVDGVEVHNAKTKPREEQYNSTYRVVSVLTVLHQDWLNGKEYKCKVSNKALPAPIEKTISKAKGQPREPQVYTLPPSREEMTKNQVSLTCLVKGFYPSDIAVEWESNGQPENNYKTTPPVLDSDGSFFLYSKLTVDKSRWQQGNVFSCSVMHEALHNHYTQKSLSLSPG
As to B1, the binding result is on record as “no binding”.

Values taken from patent US20250066450A1 (LASK PHARMA, published 2025).
